Reference: the nanobody polyreactivity screen of Harvey et al. (2022)

Test: yeast display, Sf9 membrane polyspecificity reagent, FACS + sequencing; frameworks hold sequencing errors
Outline: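 Sorting gates, low and high (top ~1%), were placed on anti-HA fluorescence to track expression and on streptavidin fluorescence to track reagent binding. A clone's polyreactivity label is taken from the gate it came out of. The reagent was 10% biotinylated, detergent-solubilized Sf9 membrane, applied for 1 hour at 4 °C to galactose-induced yeast display cells.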

Question: For “QVQLVESGGGLVQAGGRLRLSCAASGSILGEYAMGLNRQANGKERELVAAISVGGCSTYYADSVKGRFTISRDNAKNTVYLQMNSLKPVDTAVYYCSAYDYQSEMYYWGQGTQVTVSS”, which “polyreactivity (PSR sort gate)” value is on record?
Answer: The value was “high polyreactivity”.

Question: For “QVQLVESGVGLVQAGGSLRLSCAAYGSTFVSNAMGWDRQAPGKERELVAAISTSGGSTYYADSVKGRFTISRDNAKNTVYLQMNSLKPEDTAVYYCAKLLARGFRIWQDYDYWGQGTQVTVSS”, which “polyreactivity (PSR sort gate)” value is on record?
Answer: The value was “low polyreactivity”.

Question: Which “polyreactivity (PSR sort gate)” value does the source give for “QGQLVESCGGLVQAGGSLRLSCAASGSTFAAYTMGWYRQAPGQERELVAAIRFDGGRTYYADSVKGRFTSSRDNAKNTVYLPMNSLKPEDTAVYYCRAWQSYSYDYWGQGTQVTVSS” here?
Answer: The value was “high polyreactivity”.

Question: With “QVQLVESGGGLVQAGGSLSLSCAASGSTIGPNAMGWYRQAPGKERDLVAAINTRGGSTYYADSVKGRFTISRDHANNTVYLQMNSLKPEDTAVYYCAAEYVVWYLDRFNYWGQGTQVTVSS” as the sequence, how does the “polyreactivity (PSR sort gate)” value read?
Answer: The value was “high polyreactivity”.

Question: Which “polyreactivity (PSR sort gate)” value does the source give for “QVQLVESGGGLVQAGGSLRLSCAASGFTIRRYAMGWYRQAPGKESELVAAITTGGSTYYADSVKGRFTISRDNAKNTVYLQMNSLKPEDTAVYYCATDTYPYPLYYSPGAYGYWGQGTQVTVSS” here?
Answer: Its value is “high polyreactivity”.

Question: For “QDQLVDSGGGLVQAGGSLRLSCAASGRTFSPNTMGWYRQAPGKEREFVAAITASGDSTYYADSVKGRFTISRDNEKNTVYLQMNSLKPEDTAVYYCATDSNWYWGFNYWGQGTQVTVSS”, which “polyreactivity (PSR sort gate)” value is on record?
Answer: The value was “low polyreactivity”.

Question: For “QVQLVESGGGLVQAGGSLRLSCAASGSIFYFNGMGWYRQAPGKERELVAAITWGDGSTYYADSVKGRFTISRDNAKNTVYLQMNSLKREDNAVYYCAAVLLIFKYVPRYDYWGQGTQVTVSS”, which “polyreactivity (PSR sort gate)” value is on record?
Answer: Its value is “low polyreactivity”.

Question: With “QVQLEESGGGLVQAGGRHRLSCAASGNIFTSYTMGWYRQAPGKERELVAAISGGGGSTYYADSVKGRFTISRDNAKNTVYLQMNSLKPEDTAVYYCNAGRWWRRGYGYWGQGTQVTVSS” as the sequence, how does the “polyreactivity (PSR sort gate)” value read?
Answer: Its value is “high polyreactivity”.

Question: For “QVQLVESGGGLVQAGGSLSLSCAASGRIYNYAMGWYRQAPGKERELVAAITGRGGSTYYADSVKGRFTISRDNAKNTVYLQMNSLKPEDTAVYYCARAGGPRHDWGQGTQVTVSS”, which “polyreactivity (PSR sort gate)” value is on record?
Answer: The value was “high polyreactivity”.

Question: Which “polyreactivity (PSR sort gate)” value does the source give for “QVQLVESGGGLVQAGGSLRLRCAASGRTNAYYNMGRYRQAPGKERELVAAISKSGGSTYYADSVKGRFTISRDNAKNTVYLQMNSLKPEDTAVYYCAKRRSGNVRKYDYWGQGTQVTVSS” here?
Answer: The value was “high polyreactivity”.

Question: For “QVQLVESGGGLVQAGGSLRLSCAASGYTFSYYTMGRYLQAPGKERELVAVITSAGGTYFADSVKGRFTISRDNAKNTVYLQMNSLKPEDTAVYYCAAERWADYVWIFIDDYDYLGQGTQVTVSS”, which “polyreactivity (PSR sort gate)” value is on record?
Answer: Its value is “low polyreactivity”.

Question: Which “polyreactivity (PSR sort gate)” value does the source give for “QVQLVESGGGLVQAGGSLRLSCAASGFIFRYYAMGWYRQAPGKERELVAAISWSGGSTNYADSVKGRFTISRDNAKNTVYLQMNSLKPEDTAVYYCATRYRRWSTVVQDDYWGQGTQVTVSS” here?
Answer: The value was “low polyreactivity”.

Question: With “QDQLVESGGGLVQAGGSLRLSCAASGSIFTDNVMGWYRQATGKERELVAAITSTGGNTYYADSVKGRFTISRDNAKNTVYLQMNSLKREDTAVYYSNKDVARYPYGKFDYWGQGTQVTVSS” as the sequence, how does the “polyreactivity (PSR sort gate)” value read?
Answer: The value was “low polyreactivity”.

Question: With “QVQLVESGGGLVQAGGSLRLSCAASGRIFDYNTMGWYRQAPGKERELVAAITGGTGSTYYADSVKGRFTISRDNAKNTVYLHMNSLKPEDTAVYYCAAGFHKRVTPEILYDFWGQGTQVTVSS” as the sequence, how does the “polyreactivity (PSR sort gate)” value read?
Answer: Its value is “low polyreactivity”.

Question: Which “polyreactivity (PSR sort gate)” value does the source give for “QVQLVESVGGLVQAGGSLRLSCAASGITFNEYAMGWYRQATGKARELVAAISRRGGSTYYADSVKGRFTISRDNAKNTVYLQMYSLKPEDTAVYYCAADPGTPRYQFLWYGYWGQGTQVTVSS” here?
Answer: Its value is “low polyreactivity”.

Question: For “QVQLVESGGGLVHAGGSLRLSCAGSGSTFRPYAMGWYRQAPGKERELVAAIRKIGGRTYYADSVKGRFTISRDNAKNTVYLQMNSLKPEDTAVYNCNKRIGGGVHAYNYWGQGTQVSVSS”, which “polyreactivity (PSR sort gate)” value is on record?
Answer: Its value is “low polyreactivity”.

Question: For “QVQLEESVGGLDQAGGSLRLSCAASGHIIVYYPLGWYRQAPGKERELVAAITSGGSTNYADSGKGRFTISRDNAKNTVYLQMNSLKPADSAVYYCAARQWFSHRRWGGSRYDYWGQGTQVTVSS”, which “polyreactivity (PSR sort gate)” value is on record?
Answer: Its value is “low polyreactivity”.

Question: Which “polyreactivity (PSR sort gate)” value does the source give for “QVQLVESGGGLVQAGGRLRISCAASGRTFSHNTMGWYRQAPGKERELVAAITGSGASTYYADSVKGRFTISRDNAKNTVYLQMNSLKPEDTAVDYCAKVSRQSWDEYDTWGQGTQVTVSS” here?
Answer: Its value is “low polyreactivity”.

Question: For “QVQLVESGGGLVQAGGSLRLSCAASGRIFGYYTMGWYRQAPWKESELVARIRRNGVSTYYADSVKGRFTISRDNEKNTVYLQMNSLKPEDTAVYYCAAGYSINFKYDYWGQGTQVTVSS”, which “polyreactivity (PSR sort gate)” value is on record?
Answer: The value was “high polyreactivity”.

Question: Which “polyreactivity (PSR sort gate)” value does the source give for “QVQLVESGGGLVQAGGSLRLSCAASGITFNAYAMGWYRQAPGKERELVAAITSSGSSTYYADSVKGRFTISRDYAKNTVYLQMNSLKPDDTAVYYCAATRGTKFYWGQGTQVTVSS” here?
Answer: Its value is “high polyreactivity”.

Question: For “QVKLVESGGGLVQAGGSLRLSCAASGGTFGSNAMGWYRQAPGKERHLVAAISTTGGTTYYADSVKGRFTISRDNAKNTVYLQMNSLKPEDTAVYYCAKDGYVYGDWYTYAYDYWGQGTQVTVSS”, which “polyreactivity (PSR sort gate)” value is on record?
Answer: Its value is “low polyreactivity”.

Question: Which “polyreactivity (PSR sort gate)” value does the source give for “QVQLVESGGGLVQPGGSLRISCAASASTFFPYAMGWYRQAPGKERELVAAITGSGGSTYYADSVKGRFTISRDNAKNTVYLQMNSLKPEDTAVYYCNAVWEYYGKSDYWGQGTQVTVSS” here?
Answer: Its value is “low polyreactivity”.

Question: For “QVQLVESGGGLVQAGGSLRLSCAASGSTFVHYAMGWYRQAPGKERELVAAITISGGRTYYADSVKGRFTISRDNAKNTVYLQMNSLKPEDTAVYYCNADHYHRTWGYDYWGQGTQVTVSS”, which “polyreactivity (PSR sort gate)” value is on record?
Answer: The value was “low polyreactivity”.

Question: For “QVQLVESGGGLVQAGGSLRLSCAASGFTFGSYAMGWYRQAPGKDRELVAAISSNGGNTYYADSVKGRFTISRDNAKNTVYLQMNSLKPEDTAVYYCARDRQSRSLLEYDFWGQGTQVTVSS”, which “polyreactivity (PSR sort gate)” value is on record?
Answer: The value was “high polyreactivity”.

Question: With “HVQLVESGGGIVQAGGILRLSCAASGRIFSVYTMGWYRKAPGQERELVAAISSGASTNYADSVKGRFTISRDNAKNTVYLQMNSLKPEDTAVYYCAKEYGIYTDTPYYYWGQGTQVTVSS” as the sequence, how does the “polyreactivity (PSR sort gate)” value read?
Answer: The value was “low polyreactivity”.

Question: For “QVQLVESVGGLVQAGGSLRLSCAASGLTFRKYAMGWYRQAPGKERELVAGISSGGSTYYADSVKGRFTISRDNAKNTVYLQMNSLKPEDTAVYYCAAKALRTMYYWGQGTQVTVSS”, which “polyreactivity (PSR sort gate)” value is on record?
Answer: Its value is “high polyreactivity”.

Question: For “QVQLVESGGGLVQAGGSLRLSCAASGFIFLNNTLGWYRQAPGKERELVAAISWSGGSTYYADSVKGRFTISRDNAKYSVYLQMNSLKPEDTAVYYCAADVKHTTEYDYWGKGTQVTVSS”, which “polyreactivity (PSR sort gate)” value is on record?
Answer: Its value is “high polyreactivity”.

Question: With “QVQLVESGGGLVQAGGSLRLSCAASGFTFWAYAMGWYRQAPGKETELVAAISKTGGRTYYADSVKGRFTISRDNAKNTVYLQMISLKPEDTAVYYCAVDITGLYYPVDYWGQGTQVTVSS” as the sequence, how does the “polyreactivity (PSR sort gate)” value read?
Answer: Its value is “high polyreactivity”.

Question: Which “polyreactivity (PSR sort gate)” value does the source give for “QVQLVESGGGLVQAGGSLRLSCAASGSTFQVYAMGWYRQAPGKERELVASITSGGSTYADSVKGRFTISRDNAKNTVYLQINSLKPEDTAVYYCAAGGYFYPYTYDYWGQGTQVTVSS” here?
Answer: Its value is “low polyreactivity”.

Question: For “QVQLVESGGGLVQAGGSLRLSCAASGIIFITYAMGWYRQAPGKERELVAAITNSGGGTYYADSVKGRFTISRDNAKNTVYLQMNILKPEATAVYYCAARKTAYGYRYDYWGQGTQVTVSS”, which “polyreactivity (PSR sort gate)” value is on record?
Answer: The value was “high polyreactivity”.

Question: Which “polyreactivity (PSR sort gate)” value does the source give for “QDQLVESGGGLDQAGGSLRLSCAAYGSTFGYYALGWSRQAPGKERELVAAISWSGSNTYYADSVKGRFTISRDNAKNTVYLQMNSLTPEDTAVYYCAAVYRGSRAWGYDYWGQGTQVTVSS” here?
Answer: Its value is “high polyreactivity”.

Question: Which “polyreactivity (PSR sort gate)” value does the source give for “QVQLVESGGGLVQAGGSLRLSCAASGRTFYDNAMGWYRQAPGNERELVAAITVRGGSTRYADSVKGRFTISRDNAKNTVYLQLNSLKPEDTAVYYCAATQTPYRYHYDYWGQGTQVTVSS” here?
Answer: Its value is “high polyreactivity”.
